Analyte rlus and % Cross-reactivity data for one substance are collected here from patent US20120122239A1.

In assay [1] the target is glycosylated human proBNP (HyTest, Turku, Finland; Catalog No. 8GOB2) (human). Briefly: sandwich CMIA, capture 15C4, analyte 43.3 pM.
Assay [2] concerns the target human NT-pro B-type natriuretic peptide (HyTest, Turku, Finland; Catalog No. 8NT1) (human). Briefly: sandwich CMIA, capture 15C4, analyte 43.3 pM.
Assay [3] has as its target human pro B-type natriuretic peptide (HyTest, Turku, Finland; Catalog No. 8PRO8) (human). In words: sandwich CMIA, capture 15C4, analyte 43.3 pM.
Assay [4] addresses glycosylated human proBNP (HyTest, Turku, Finland; Catalog No. 8GOB2) (human). Briefly: sandwich CMIA, capture 15F11, analyte 86.6 pM.
Assay [5] concerns the target human NT-pro B-type natriuretic peptide (HyTest, Turku, Finland; Catalog No. 8NT1) (human). In words: sandwich CMIA, capture 15F11, analyte 86.6 pM.
Assay [6] deals with human pro B-type natriuretic peptide (HyTest, Turku, Finland; Catalog No. 8PRO8) (human). Briefly: sandwich CMIA, capture 15F11, analyte 86.6 pM.
Chain of human pro B-type natriuretic peptide (HyTest, Turku, Finland; Catalog No. 8PRO8) (human) (chain, as listed by the source): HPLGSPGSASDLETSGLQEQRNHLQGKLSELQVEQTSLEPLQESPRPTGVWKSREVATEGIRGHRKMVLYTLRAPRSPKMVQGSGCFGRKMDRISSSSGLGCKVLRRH
The target in assay [7] is glycosylated human proBNP (HyTest, Turku, Finland; Catalog No. 8GOB2) (human). In words: sandwich CMIA, capture 15C4, analyte 577.4 pM.
For assay [8] the target is unchanged. Briefly: sandwich CMIA, capture 15C4, analyte 0.0 pM (blank).
Assay [9] addresses human NT-pro B-type natriuretic peptide (HyTest, Turku, Finland; Catalog No. 8NT1) (human). The assay is described as above.
Assay [10] deals with human pro B-type natriuretic peptide (HyTest, Turku, Finland; Catalog No. 8PRO8) (human). The description is as above.
The target in assay [11] is glycosylated human proBNP (HyTest, Turku, Finland; Catalog No. 8GOB2) (human). Briefly: sandwich CMIA, capture 15C4, 43.3 pM, against human NT-proBNP.
Assay [12] deals with human pro B-type natriuretic peptide (HyTest, Turku, Finland; Catalog No. 8PRO8) (human). The description is as above.

Chain of human NT-pro B-type natriuretic peptide (HyTest, Turku, Finland; Catalog No. 8NT1) (human) (chain, as listed by the source): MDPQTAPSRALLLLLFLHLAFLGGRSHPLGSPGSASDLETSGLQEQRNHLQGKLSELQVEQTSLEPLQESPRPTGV

For the substance “anti-human NT-proBNP/anti-human proBNP labeled monoclonal antibody 29D12 (HyTest, Turku, Finland)”, the Analyte rlus was found to be 877 rlus in [1]; 8870 rlus in assay [2]; 2170 rlus in assay [3]; 4470 rlus in assay [4]; 3540 rlus in assay [5]; 2210 rlus in assay [6]. Besides, the Analyte rlus in assay [7] was 1420 rlus; in assay [8], 892 rlus; in assay [9], 892 rlus; in [10], 892 rlus. In addition, the results for the % Cross-reactivity in assay [11] and in [12] were -0.2% and 16%, respectively.
